US20110044911A1

Biological target: receptors for CRF on murine pituitary tumor cell line AtT-20 (murine)
Assay: cell-based or functional assay

Production of c-AMP (nM): 2 fold
fold decrease in Production of c-AMP (nM): 10 fold
Substance: CRF-conjugated dextran-coated and maleimide surface-modified magnetonanoparticles (peptide)
